Experimental data taken from patent US20240010753A1 (EPIMAB BIOTHERAPEUTICS HK, published 2024).

Tests used:
[1] = biological target: T1, recombinant human ROR1-ECD protein (human, UniProt Q01973 30-406); test: BLI (Octet), 6 ROR1 antigen concentrations, 3 fold diluted from 500 nM
T1 construct: also called human ROR1 extracellular domain
Method: (§1) The ROR1/CD3 FIT-Ig proteins were assayed for and ranked by dissociation rate constant (koff, “off-rate”) using an Octet®RED96 biolayer interferometry (Pall FortéBio LLC). Anti-hIgG Fc Capture (AHC) Biosensors (Pall) were first exposed to antibody at a concentration of 100 nM for 30 seconds to capture antibody, then dipped into running buffer (1× pH 7.2 PBS, 0.05% Tween 20, 0.1% BSA) for 60 seconds to check baseline. Sensors with captured antibody were dipped into recombinant human ROR1 ECD protein at 10 ug/ml for 5 minutes to measure association, followed by dipped into running buffer for 1200 seconds to measure dissociation. The association and dissociation curves were fitted to a 1:1 Langmuir binding model using ForteBio Data Analysis software (Pall). The off-rate ratios were calculated by the off-rate of antibody to that of FIT1007-12B. Lower ratio indicates slower dissociation of the antibody in comparison with the parental chimeric antibody FIT1007-12B.
ROR1 binding affinity/kinetics of the humanized candidate FIT1007-12B-17 and its parental chimeric FIT-Ig FIT1007-12B were measured using the same method as described in Example 3. For each antibody, measurements were titrated by 6 antigen concentrations, i.e., 3 fold diluted from 500 nM. Binding kinetics of FIT1007-12B-18, MAT1007-12B-17 and MAT1007-12B-18 are similar to those of FIT1007-12B-17. These candidates share the same ROR1 binding Fab.

[2] = biological target: T1, recombinant human ROR1-ECD protein; test: BLI (Octet RED96), FIT-Ig captured on anti-hIgG Fc sensors, ROR1 ECD at 10 ug/ml; the reference itself
Method: as §1

[3] = biological target: T1, recombinant human ROR1-ECD protein; test: BLI (Octet RED96), FIT-Ig captured on anti-hIgG Fc sensors, ROR1 ECD in solution
Method: as §1

human ROR1 on cells [4] = biological target: T2, human ROR1 on cells (human, UniProt Q01973 30-937); test: flow cytometry on MDA-MB-231 cells, MFI
T2 construct: whole, on cells; the cell line is named under assay; also called CHO-ROR1; CHOK1-ROR1
Method: (§2) Briefly, 5×10⁵ cells were seeded into each well of a 96-well plate. Cells were centrifuged at 400 g for 5 minutes and supernatants were discarded. For each well, […] of serially diluted antibodies were then added and mixed with the cells. After 40 minutes of incubation at 4° C., plates were washed several times to remove excess antibodies. Secondary fluorochrome-conjugated goat anti-human IgG antibody was then added and incubated with cells at room temperature for 20 minutes. After another round of centrifugation and a washing step, cells were resuspended in FACS buffer for reading on a CytoFLEX Flow Cytometer (Beckman Coulter). Median Fluorescence Intensity (MFI) readouts were plotted against antibody concentration and analyzed with GraphPad Prism 6.0 software.

human ROR1 on cells [5] = biological target: T2, human ROR1 on cells; test: flow cytometry on A549 cells, MFI
Method: as §2

human ROR1 on cells [6] = biological target: T2, human ROR1 on cells; test: flow cytometry on NCI-H1975 cells, MFI
Method: as §2

human ROR1 on cells [7] = biological target: T2, human ROR1 on cells; test: flow cytometry on RPMI-8226 cells, MFI
Method: as §2

human ROR1 on cells [8] = biological target: T2, human ROR1 on cells; test: flow cytometry on RPMI8226 cells, internalization assay, 4°C control (coincides with 37°C + PAO)
Method: The binding internalization of humanized anti-ROR1 antibodies were characterized with ROR1-expressing myeloma cell line RPMI8226 with a method similar to that described previously in Example 1.4. Briefly, cells were harvested and resuspended in FACS buffer at density of 3 million per mL. Diluted antibodies were added to the tubes and incubated for 30 min at 4° C. After the first incubation, cells were washed three times with cold PBS to remove unbound antibody. Then, the cells of each antibody treatment were split into three groups, 4° C., 37° C. and 37° C.+PAO, respectively. Cells in the 37° C. […] After another round of centrifugation and washing step, cells were resuspended in FACS buffer for reading on a CytoFLEX Flow Cytometer (Beckman Coulter). An irrelevant mouse IgG control (MFIbackground) was calculated and used for background calibration. The difference between the MFI readout of “control” and that of “internalization” (ΔMFI) reflects the internalization of ROR1 antibodies, and such difference in relative to calibrated MFI of “control” reflects percentage of antibody internalization, which is calculated as follows and is summarized below in Table 15. […] The calculated antibody internalization percentages of HuROR-mAb004-1 and FIT1007-12B-17 were consistent with the results shown in Example 1.4, Table 4.

T1 sequence (Q01973 30-406): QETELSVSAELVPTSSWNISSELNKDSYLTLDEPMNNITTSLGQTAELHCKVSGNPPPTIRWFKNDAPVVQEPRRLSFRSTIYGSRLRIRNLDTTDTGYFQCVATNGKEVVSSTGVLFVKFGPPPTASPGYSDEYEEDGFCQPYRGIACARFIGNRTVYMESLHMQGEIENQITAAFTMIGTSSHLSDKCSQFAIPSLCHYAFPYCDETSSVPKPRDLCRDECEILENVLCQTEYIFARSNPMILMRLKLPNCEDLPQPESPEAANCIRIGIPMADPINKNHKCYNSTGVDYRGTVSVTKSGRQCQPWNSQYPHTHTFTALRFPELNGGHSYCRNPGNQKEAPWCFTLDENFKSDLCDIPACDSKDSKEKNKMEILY
T2 sequence (Q01973 30-937): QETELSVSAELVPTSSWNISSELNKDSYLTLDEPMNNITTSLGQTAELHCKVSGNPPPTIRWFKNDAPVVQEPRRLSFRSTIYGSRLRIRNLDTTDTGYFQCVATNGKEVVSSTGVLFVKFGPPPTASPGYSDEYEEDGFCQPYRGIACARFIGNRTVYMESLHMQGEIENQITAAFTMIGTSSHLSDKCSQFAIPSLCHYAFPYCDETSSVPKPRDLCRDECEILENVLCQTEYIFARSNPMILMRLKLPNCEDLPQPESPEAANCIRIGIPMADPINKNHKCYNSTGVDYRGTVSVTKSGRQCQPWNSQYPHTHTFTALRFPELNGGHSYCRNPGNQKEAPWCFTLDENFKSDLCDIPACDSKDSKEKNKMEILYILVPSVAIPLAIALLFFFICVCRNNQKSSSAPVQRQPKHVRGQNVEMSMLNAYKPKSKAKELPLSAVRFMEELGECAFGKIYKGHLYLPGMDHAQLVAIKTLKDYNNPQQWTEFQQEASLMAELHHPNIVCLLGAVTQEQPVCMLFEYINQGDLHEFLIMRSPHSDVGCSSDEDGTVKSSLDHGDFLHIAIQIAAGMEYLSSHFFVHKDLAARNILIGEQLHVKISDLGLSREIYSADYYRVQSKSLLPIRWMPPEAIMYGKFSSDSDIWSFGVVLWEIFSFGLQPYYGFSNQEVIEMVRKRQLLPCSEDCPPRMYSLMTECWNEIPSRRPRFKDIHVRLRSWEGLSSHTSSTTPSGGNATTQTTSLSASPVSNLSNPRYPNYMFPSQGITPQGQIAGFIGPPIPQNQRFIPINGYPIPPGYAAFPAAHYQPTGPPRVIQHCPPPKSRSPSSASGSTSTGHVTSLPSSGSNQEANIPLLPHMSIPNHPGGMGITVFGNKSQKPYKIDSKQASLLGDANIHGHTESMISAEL

B1: FIT1007-12B (bispecific antibody, human IgG1, kappa, L234A L235A)
chain 1: not shown
chain 2: QVQLQQSGPELVKPGASVKISCKASGYAFSRSWMNWVKQRPEKGLEWIGRIYPGNGDIKYNGNFKGKATLTADKSSSTAYMQLSSLTSEDSAVYFCAHIYYDFYYALDYWGQGTSVTVSSASTKGPSVFPLAPSSKSTSGGTAALGCLVKDYFPEPVTVSWNSGALTSGVHTFPAVLQSSGLYSLSSVVTVPSSSLGTQTYICNVNHKPSNTKVDKKVEPKSC
chain 3: not shown
notes: also called parental chimeric FIT-Ig; chimeric antibody (FIT1007-12B)
Kd [1]: 5.67 nM
koff [1]: 0.00103 s⁻¹
kon [1]: 182000 M⁻¹ s⁻¹
Off-rate Ratio [2]: 100%

B2: FIT1007-12B-15 (bispecific antibody, human IgG1, kappa, L234A L235A)
chain 1: not shown
chain 2: QVQLQQSGPELVKPGASVKISCKASGYAFSRSWMNWVKQRPEKGLEWIGRIYPGNADIKYQGNFKGKATLTADKSSSTAYMQLSSLTSEDSAVYFCAHIYYDFYYALDYWGQGTSVTVSSASTKGPSVFPLAPSSKSTSGGTAALGCLVKDYFPEPVTVSWNSGALTSGVHTFPAVLQSSGLYSLSSVVTVPSSSLGTQTYICNVNHKPSNTKVDKKVEPKSC
chain 3: not shown
notes: Chimeric ROR1 arm with CDR-H2 point mutations (AQ); ROR1xCD3 FIT-Ig, no linkers
binding result [3]: no binding (tested: 10 ug/ml)

B3: HuROR1-mAb004-1 (antibody, V domains shown)
VH: EVQLVQSGAEVKKPGSSVKVSCKASGYTFSRSWMNWVRQAPGQGLEWMGRIYPGNADIKYNANFKGRVTITADKSTSTAYMELSSLRSEDTAVYYCAHIYYDFYYALDYWGQGTTVTVSS
VL: DIQMTQSPSSLSASVGDRVTITCKASQDINKYITWYQQKPGKAPKLLIYYTSTLQPGVPSRFSGSGSGTDYTFTISSLQPEDIATYYCLQYDSLLWTFGGGTKVEIK
notes: only the variable domains are tied to it; also called HuROR-mAb004-1; parental anti-ROR1 monoclonal IgG1 antibody
EC50 (read off the curve) (human ROR1 on cells [4]): ~2 nM
EC50 (read off the curve) (human ROR1 on cells [5]): ~1 nM
EC50 (read off the curve) (human ROR1 on cells [6]): ~2 nM
EC50 (read off the curve) (human ROR1 on cells [7]): ~1 nM
EC50 (read off the curve) (human ROR1 on cells [8]): ~1 nM
